In patent US20060211022A1:

Biological target: NGFR/EPOR hybrid receptor NECD (NGFR/EPOR chimera D) on 32D/NECDsc-14 cells (human; mouse)
Assay: cell-based or functional assay

NGF, sequence (P01138 122-241): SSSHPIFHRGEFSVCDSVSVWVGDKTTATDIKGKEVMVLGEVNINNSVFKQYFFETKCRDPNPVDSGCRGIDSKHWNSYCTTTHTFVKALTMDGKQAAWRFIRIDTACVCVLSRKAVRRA
NGFR/EPOR hybrid receptor NECD (NGFR/EPOR chimera D) on 32D/NECDsc-14 cells (human; mouse), sequence (chain, as listed by the source mutant limits assumed): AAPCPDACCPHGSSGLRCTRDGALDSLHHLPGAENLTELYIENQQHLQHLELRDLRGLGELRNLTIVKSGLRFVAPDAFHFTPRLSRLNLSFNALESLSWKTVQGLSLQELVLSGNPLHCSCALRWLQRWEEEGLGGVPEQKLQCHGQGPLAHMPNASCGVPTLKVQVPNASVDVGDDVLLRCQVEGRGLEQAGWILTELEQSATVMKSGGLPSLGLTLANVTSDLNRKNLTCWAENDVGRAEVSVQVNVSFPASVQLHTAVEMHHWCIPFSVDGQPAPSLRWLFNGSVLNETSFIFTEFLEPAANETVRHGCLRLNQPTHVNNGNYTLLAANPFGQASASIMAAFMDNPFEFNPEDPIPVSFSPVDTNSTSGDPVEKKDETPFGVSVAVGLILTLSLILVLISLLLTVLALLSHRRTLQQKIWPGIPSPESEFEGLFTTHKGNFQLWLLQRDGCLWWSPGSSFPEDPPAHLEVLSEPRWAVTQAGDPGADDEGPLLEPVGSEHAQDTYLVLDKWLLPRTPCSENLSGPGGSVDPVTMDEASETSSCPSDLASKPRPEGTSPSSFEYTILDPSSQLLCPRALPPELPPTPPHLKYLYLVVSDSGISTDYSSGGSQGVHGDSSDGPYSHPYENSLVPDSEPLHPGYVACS

NGF dose response in serum matrix, 0.02 ng/mL NGF, 1% human serum: 947
NGF dose response in serum matrix, 0.02 ng/mL NGF, 2% rat serum: 1190
NGF dose response in serum matrix, 0.02 ng/mL NGF, 5% cyno serum: 2180
NGF dose response in serum matrix, 0.02 ng/mL NGF, no serum: 595
NGF dose response in serum matrix, 0.07 ng/mL NGF, 1% human serum: 1480
NGF dose response in serum matrix, 0.07 ng/mL NGF, 2% rat serum: 3520
NGF dose response in serum matrix, 0.07 ng/mL NGF, 5% cyno serum: 5760
NGF dose response in serum matrix, 0.07 ng/mL NGF, no serum: 1390
NGF dose response in serum matrix, 0.21 ng/mL NGF, 1% human serum: 5830
NGF dose response in serum matrix, 0.21 ng/mL NGF, 2% rat serum: 12000
NGF dose response in serum matrix, 0.21 ng/mL NGF, 5% cyno serum: 15800
NGF dose response in serum matrix, 0.21 ng/mL NGF, no serum: 5420
NGF dose response in serum matrix, 0.62 ng/mL NGF, 1% human serum: 13400
NGF dose response in serum matrix, 0.62 ng/mL NGF, 2% rat serum: 29400
NGF dose response in serum matrix, 0.62 ng/mL NGF, 5% cyno serum: 32500
NGF dose response in serum matrix, 0.62 ng/mL NGF, no serum: 17100
NGF dose response in serum matrix, 1.85 ng/mL NGF, 1% human serum: 19500
NGF dose response in serum matrix, 1.85 ng/mL NGF, 2% rat serum: 37700
NGF dose response in serum matrix, 1.85 ng/mL NGF, 5% cyno serum: 43100
NGF dose response in serum matrix, 1.85 ng/mL NGF, no serum: 27400
NGF dose response in serum matrix, 5.56 ng/mL NGF, 1% human serum: 22200
NGF dose response in serum matrix, 5.56 ng/mL NGF, 2% rat serum: 43400
NGF dose response in serum matrix, 5.56 ng/mL NGF, 5% cyno serum: 52200
NGF dose response in serum matrix, 5.56 ng/mL NGF, no serum: 35200
NGF dose response in serum matrix, 16.67 ng/mL NGF, 1% human serum: 24600
NGF dose response in serum matrix, 16.67 ng/mL NGF, 2% rat serum: 42400
NGF dose response in serum matrix, 16.67 ng/mL NGF, 5% cyno serum: 51800
NGF dose response in serum matrix, 16.67 ng/mL NGF, no serum: 39700
NGF dose response in serum matrix, 50.00 ng/mL NGF, 1% human serum: 19700
NGF dose response in serum matrix, 50.00 ng/mL NGF, 2% rat serum: 46900
NGF dose response in serum matrix, 50.00 ng/mL NGF, 5% cyno serum: 56400
NGF dose response in serum matrix, 50.00 ng/mL NGF, no serum: 41000
NGF dose response in serum matrix, 150.00 ng/mL NGF, 1% human serum: 18600
NGF dose response in serum matrix, 150.00 ng/mL NGF, 2% rat serum: 49500
NGF dose response in serum matrix, 150.00 ng/mL NGF, 5% cyno serum: 62100
NGF dose response in serum matrix, 150.00 ng/mL NGF, no serum: 44100
[3H]-thymidine counts, NECDsc-14 NGF-dependent, 0.02 ng/ml: 1960 counts
[3H]-thymidine counts, NECDsc-14 NGF-dependent, 0.07 ng/ml: 4690 counts
[3H]-thymidine counts, NECDsc-14 NGF-dependent, 0.21 ng/ml: 8030 counts
[3H]-thymidine counts, NECDsc-14 NGF-dependent, 0.62 ng/ml: 16800 counts
[3H]-thymidine counts, NECDsc-14 NGF-dependent, 1.85 ng/ml: 22400 counts
[3H]-thymidine counts, NECDsc-14 NGF-dependent, 5.56 ng/ml: 24200 counts
[3H]-thymidine counts, NECDsc-14 NGF-dependent, 16.67 ng/ml: 22900 counts
[3H]-thymidine counts, NECDsc-14 NGF-dependent, 50.00 ng/ml: 21600 counts
[3H]-thymidine counts, NECDsc-14 NGF-dependent, 150.00 ng/ml: 20900 counts
Substance: NGF (ligand)
